# Measured values taken from patent publication US20110263454A1, “Methods of Identifying Functional Characteristics of Promoters, Transcription Modifying Proteins and Transcription Modulating Agents” (Salk Institute for Biological Studies, priority 2008, published 2011).
# Columns and labels:
# [1] = test system: hIRF7 promoter; experiment: NHR-promoter luciferase screen, hIRF7 promoter; type: cell-based, human; settings: for Normalized Luc. act., normalized to control / Luc. act., normalized to lacZ: IRF7 promoter reporter; for Normalized Luc. act., normalized to control: HR without or with its ligand, relative to control; for Luc. act., normalized to lacZ: hormone receptor (HR) without or with its ligand; for hIRF7 promoter reporter activity: transcription factor +/- ligand, control = 1.00
# Procedure, shortened: (§1)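 CV-1 cells were co-transfected with 50 ng NHR (homodimer or NHR/RXR heterodimer), 100 ng promoter-luciferase construct and 50 ng LacZ. Luciferase was normalized to LacZ and to a no-NHR/no-ligand control.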
# [2] = test system: mADRP promoter; experiment: NHR-promoter luciferase screen, mADRP promoter; type: cell-based, mouse; settings: for mADRP promoter reporter activity: transcription factor +/- ligand, control = 1.00; for Luc. act., normalized to lacZ / Normalized Luc. act., normalized to control: ADRP promoter, HR/ligand component
# Procedure, shortened: as §1
# [3] = test system: SREBP1c promoter; experiment: NHR-promoter luciferase screen, SREBP1c promoter; type: cell-based, mouse; settings: for Luc. act., normalized to lacZ / Normalized Luc. act., normalized to control: SREBP1c promoter, HR component without or with ligand; for mSREBP1-c promoter reporter activity: transcription factor +/- ligand, control = 1.00
# Procedure, shortened: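 CV-1 cells co-transfected with 50 ng NHR (homodimer or NHR/RXR heterodimer), 100 ng promoter-luciferase and 50 ng LacZ. Luciferase read at 48 h, normalised to LacZ and to a no-NHR/no-ligand control.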
Molecule,"Normalized Luc. act., normalized to control [1]","Luc. act., normalized to lacZ [1]",hIRF7 promoter reporter activity [1],mADRP promoter reporter activity [2],"Luc. act., normalized to lacZ [3]","Normalized Luc. act., normalized to control [3]",mSREBP1-c promoter reporter activity [3],"Luc. act., normalized to lacZ [2]","Normalized Luc. act., normalized to control [2]"
"ERR3: Estrogen Related Receptor γ (NR3B3, ERRg), cDNA driver (protein, UniProt P62508 1-458, looked up) Estrogen-related receptor …: MDSVELCLPESFSLHYEEELLCRMSNKDRHIDSSCSSFIKTEPSSPASLTDSVNHHSPGGSSDASGSYSSTMNGHQNGLDSPPLYPSAPILGGSGPVRKLYDDCSSTIVEDPQTKCEYMLNSMPKRLCLVCGDIASGYHYGVASCEACKAFFKRTIQGNIEYSCPATNECEITKRRRKSCQACRFMKCLKVGMLKEGVRLDRVRGGRQKYKRRIDAENSPYLNPQLVQPAKKPYNKIVSHLLVAEPEKIYAMPDPTVPDSDIKALTTLCDLADRELVVIIGWAKHIPGFSTLSLADQMSLLQSAWMEILILGVVYRSLSFEDELVYADDYIMDEDQSKLAGLLDLNNAILQLVKKYKSMKLEKEEFVTLKAIALANSDSMHIEDVEAVQKLQDVLHEALQDYEAGQHMEDPRRAGKMLMTLPLLRQTSTKAVQHFYNIKLEGKVPMHKLFLEMLEAKV",2.1,55.2,2.10,3.37,406.7,1.3,1.26,,
"CTF1: COUP-TF1 (NR2F1), cDNA driver (protein, UniProt P10589 1-423, looked up) COUP transcription factor 1: MAMVVSSWRDPQDDVAGGNPGGPNPAAQAARGGGGGAGEQQQQAGSGAPHTPQTPGQPGAPATPGTAGDKGQGPPGSGQSQQHIECVVCGDKSSGKHYGQFTCEGCKSFFKRSVRRNLTYTCRANRNCPIDQHHRNQCQYCRLKKCLKVGMRREAVQRGRMPPTQPNPGQYALTNGDPLNGHCYLSGYISLLLRAEPYPTSRYGSQCMQPNNIMGIENICELAARLLFSAVEWARNIPFFPDLQITDQVSLLRLTWSELFVLNAAQCSMPLHVAPLLAAAGLHASPMSADRVVAFMDHIRIFQEQVEKLKALHVDSAEYSCLKAIVLFTSDACGLSDAAHIESLQEKSQCALEEYVRSQYPNQPSRFGKLLLRLPSLRTVSSSVIEQLFFVRLVGKTPIETLIRDMLLSGSSFNWPYMSIQCS",0.9,24.8,0.94,0.79,205.9,0.6,0.64,393.3,0.8
"CTF2: COUP-TF2 (NR2F2), cDNA driver (protein, UniProt P24468 1-414, looked up) COUP transcription factor 2: MAMVVSTWRDPQDEVPGSQGSQASQAPPVPGPPPGAPHTPQTPGQGGPASTPAQTAAGGQGGPGGPGSDKQQQQQHIECVVCGDKSSGKHYGQFTCEGCKSFFKRSVRRNLSYTCRANRNCPIDQHHRNQCQYCRLKKCLKVGMRREAVQRGRMPPTQPTHGQFALTNGDPLNCHSYLSGYISLLLRAEPYPTSRFGSQCMQPNNIMGIENICELAARMLFSAVEWARNIPFFPDLQITDQVALLRLTWSELFVLNAAQCSMPLHVAPLLAAAGLHASPMSADRVVAFMDHIRIFQEQVEKLKALHVDSAEYSCLKAIVLFTSDACGLSDVAHVESLQEKSQCALEEYVRSQYPNQPTRFGKLLLRLPSLRTVSSSVIEQLFFVRLVGKTPIETLIRDMLLSGSSFNWPYMAIQ",1.0,25.6,0.97,1.80,455.6,1.4,1.41,893.8,1.8
"TR2: Testicular Orphan Nuclear Receptor 2 (NR2C1), cDNA driver (protein, UniProt P13056 1-603, looked up) Nuclear receptor subfamily 2 …: MATIEEIAHQIIEQQMGEIVTEQQTGQKIQIVTALDHNTQGKQFILTNHDGSTPSKVILARQDSTPGKVFLTTPDAAGVNQLFFTTPDLSAQHLQLLTDNSPDQGPNKVFDLCVVCGDKASGRHYGAVTCEGCKGFFKRSIRKNLVYSCRGSKDCIINKHHRNRCQYCRLQRCIAFGMKQDSVQCERKPIEVSREKSSNCAASTEKIYIRKDLRSPLTATPTFVTDSESTRSTGLLDSGMFMNIHPSGVKTESAVLMTSDKAESCQGDLSTLANVVTSLANLGKTKDLSQNSNEMSMIESLSNDDTSLCEFQEMQTNGDVSRAFDTLAKALNPGESTACQSSVAGMEGSVHLITGDSSINYTEKEGPLLSDSHVAFRLTMPSPMPEYLNVHYIGESASRLLFLSMHWALSIPSFQALGQENSISLVKAYWNELFTLGLAQCWQVMNVATILATFVNCLHNSLQQDKMSTERRKLLMEHIFKLQEFCNSMVKLCIDGYEYAYLKAIVLFSPDHPSLENMEQIEKFQEKAYVEFQDYITKTYPDDTYRLSRLLLRLPALRLMNATITEELFFKGLIGNIRIDSVIPHILKMEPADYNSQIIGHSI",1.0,25.8,0.98,1.38,102.9,0.3,0.32,684.7,1.4
"TR4: Testicular Orphan Nuclear Receptor 4 (NR2C2), cDNA driver (protein, UniProt P49116 1-596, looked up) Nuclear receptor subfamily 2 …: MTSPSPRIQIISTDSAVASPQRIQIVTDQQTGQKIQIVTAVDASGSPKQQFILTSPDGAGTGKVILASPETSSAKQLIFTTSDNLVPGRIQIVTDSASVERLLGKTDVQRPQVVEYCVVCGDKASGRHYGAVSCEGCKGFFKRSVRKNLTYSCRSNQDCIINKHHRNRCQFCRLKKCLEMGMKMESVQSERKPFDVQREKPSNCAASTEKIYIRKDLRSPLIATPTFVADKDGARQTGLLDPGMLVNIQQPLIREDGTVLLATDSKAETSQGALGTLANVVTSLANLSESLNNGDTSEIQPEDQSASEITRAFDTLAKALNTTDSSSSPSLADGIDTSGGGSIHVISRDQSTPIIEVEGPLLSDTHVTFKLTMPSPMPEYLNVHYICESASRLLFLSMHWARSIPAFQALGQDCNTSLVRACWNELFTLGLAQCAQVMSLSTILAAIVNHLQNSIQEDKLSGDRIKQVMEHIWKLQEFCNSMAKLDIDGYEYAYLKAIVLFSPDHPGLTSTSQIEKFQEKAQMELQDYVQKTYSEDTYRLARILVRLPALRLMSSNITEELFFTGLIGNVSIDSIIPYILKMETAEYNGQITGASL",1.9,48.8,1.85,2.02,477.6,1.5,1.48,1003.3,2.0
"Erb: Estrogen Receptor β (NR3A2, ERb), cDNA driver (protein, UniProt Q92731 1-530, looked up) Estrogen receptor beta: MDIKNSPSSLNSPSSYNCSQSILPLEHGSIYIPSSYVDSHHEYPAMTFYSPAVMNYSIPSNVTNLEGGPGRQTTSPNVLWPTPGHLSPLVVHRQLSHLYAEPQKSPWCEARSLEHTLPVNRETLKRKVSGNRCASPVTGPGSKRDAHFCAVCSDYASGYHYGVWSCEGCKAFFKRSIQGHNDYICPATNQCTIDKNRRKSCQACRLRKCYEVGMVKCGSRRERCGYRLVRRQRSADEQLHCAGKAKRSGGHAPRVRELLLDALSPEQLVLTLLEAEPPHVLISRPSAPFTEASMMMSLTKLADKELVHMISWAKKIPGFVELSLFDQVRLLESCWMEVLMMGLMWRSIDHPGKLIFAPDLVLDRDEGKCVEGILEIFDMLLATTSRFRELKLQHKEYLCVKAMILLNSSMYPLVTATQDADSSRKLAHLLNAVTDALVWVIAKSGISSQQQSMRLANLLMLLSHVRHASNKGMEHLLNMKCKNVVPVYDLLLEMLNAHVLRGCKSSITGSECSPAEDSKSKEGSQNPQSQ",1.4,37.5,1.42,1.08,249.2,0.8,0.77,536.9,1.1
"HNF4g: Hepatocyte Nuclear Factor γ (NR2A2), cDNA driver (protein, UniProt Q14541 1-408, looked up) Hepatocyte nuclear factor …: MNTTDNGVNCLCAICGDRATGKHYGASSCDGCKGFFRRSIRKSHVYSCRFSRQCVVDKDKRNQCRYCRLRKCFRAGMKKEAVQNERDRISTRRSTFDGSNIPSINTLAQAEVRSRQISVSSPGSSTDINVKKIASIGDVCESMKQQLLVLVEWAKYIPAFCELPLDDQVALLRAHAGEHLLLGATKRSMMYKDILLLGNNYVIHRNSCEVEISRVANRVLDELVRPFQEIQIDDNEYACLKAIVFFDPDAKGLSDPVKIKNMRFQVQIGLEDYINDRQYDSRGRFGELLLLLPTLQSITWQMIEQIQFVKLFGMVKIDNLLQEMLLGGASNDGSHLHHPMHPHLSQDPLTGQTILLGPMSTLVHADQISTPETPLPSPPQGSGQEQYKIAANQASVISHQHLSKQKQL",1.2,31.7,1.20,1.03,296.9,0.9,0.92,511.7,1.0
"ERR2: Estrogen Related Receptor β (NR3B2, ERRb), cDNA driver (protein, UniProt O95718 1-433, looked up) Steroid hormone receptor ERR2: MSSDDRHLGSSCGSFIKTEPSSPSSGIDALSHHSPSGSSDASGGFGLALGTHANGLDSPPMFAGAGLGGTPCRKSYEDCASGIMEDSAIKCEYMLNAIPKRLCLVCGDIASGYHYGVASCEACKAFFKRTIQGNIEYSCPATNECEITKRRRKSCQACRFMKCLKVGMLKEGVRLDRVRGGRQKYKRRLDSESSPYLSLQISPPAKKPLTKIVSYLLVAEPDKLYAMPPPGMPEGDIKALTTLCDLADRELVVIIGWAKHIPGFSSLSLGDQMSLLQSAWMEILILGIVYRSLPYDDKLVYAEDYIMDEEHSRLAGLLELYRAILQLVRRYKKLKVEKEEFVTLKALALANSDSMYIEDLEAVQKLQDLLHEALQDYELSQRHEEPWRTGKLLLTLPLLRQTAAKAVQHFYSVKLQGKVPMHKLFLEMLEAKV",2.3,60.5,2.30,1.76,347.9,1.1,1.08,874.7,1.8
